Measurements taken from paper PMC11621567 (Nature Communications, 2024).
Read-outs that look alike come from different tables or passages of the source.

Key:
cryo-EM structure [1] = target: the molecule itself; test: cryo-EM structure
cryo-EM structure [2] = target: the molecule itself; test: cryo-EM structure; remark: listed apart in the source

Protein | stoichiometry N (cryo-EM structure [1]) | stoichiometry N (cryo-EM structure [2])
human GPR156 EM (residues 1–346), apo (receptor) MEPEINCSELCDSFPGQELDRRPLHDLCKTTITSSHHSSKTISSLSPVLLGIVWTFLSCGLLLILFFLAFTIHCRKNRIVKMSSPNLNIVTLLGSCLTYSSAYLFGIQDVLVGSSMETLIQTRLSMLCIGTSLVFGPILGKSWRLYKVFTQRVPDKRVIIKDLQLLGLVAALLMADVILLMTWVLTDPIQCLQILSVSMTVTGKDVSCTSTSTHFCASRYSDVWIALIWGCKGLLLLYGAYLAGLTGHVSSPPVNQSLTIMVGVNLLVLAAGLLFVVTRYLHSWPNLVFGLTSGGIFVCTTTINCFIFIPQLKQWKAFEEENQTIRRMAKYFSTPNKSFHTQYGEE | 2 | –
human GPR156 EM (residues 1–346) in the GPR156–Gi3 complex (receptor) MEPEINCSELCDSFPGQELDRRPLHDLCKTTITSSHHSSKTISSLSPVLLGIVWTFLSCGLLLILFFLAFTIHCRKNRIVKMSSPNLNIVTLLGSCLTYSSAYLFGIQDVLVGSSMETLIQTRLSMLCIGTSLVFGPILGKSWRLYKVFTQRVPDKRVIIKDLQLLGLVAALLMADVILLMTWVLTDPIQCLQILSVSMTVTGKDVSCTSTSTHFCASRYSDVWIALIWGCKGLLLLYGAYLAGLTGHVSSPPVNQSLTIMVGVNLLVLAAGLLFVVTRYLHSWPNLVFGLTSGGIFVCTTTINCFIFIPQLKQWKAFEEENQTIRRMAKYFSTPNKSFHTQYGEE | – | 2
